Assay results reported in the Immune Epitope Database (IEDB).

Experiments:
[1] = target: HLA-A*01:01; assay: IEDB peptide-MHC binding, purified MHC/direct/fluorescence; filed as Kd, often an IC50 or EC50 that approximates it; ≥ and ≤ were set here for values at or beyond the usual limits of such assays
[2] = target: HLA-A*31:01; assay: as above
[3] = target: HLA-A*24:03; assay: as above
[4] = target: HLA-A*03:01; assay: as above
[5] = target: HLA-A*69:01; assay: as above
[6] = target: HLA-B*44:02; assay: as above
[7] = target: HLA-B*27:05; assay: as above
[8] = target: HLA-B*15:01; assay: as above
[9] = target: HLA-B*40:01; assay: as above
[10] = target: HLA-A*26:01; assay: as above
[11] = target: HLA-A*02:01; assay: as above
[12] = target: HLA-A*11:01; assay: as above
[13] = target: HLA-B*35:01; assay: as above
[14] = target: HLA-B*58:01; assay: as above
[15] = target: HLA-B*07:02; assay: as above
[16] = target: HLA-B*08:01; assay: as above
[17] = target: HLA-A*30:01; assay: as above
[18] = target: HLA-B*48:01; assay: as above; details: source organism: Burkholderia mallei
[19] = target: HLA-C*12:03; assay: as above; details: source organism: Burkholderia mallei SAVP1
[20] = target: HLA-B*46:01; assay: as above; details: source organism: Burkholderia mallei
[21] = target: HLA-A*03:01; assay: IEDB peptide-MHC binding, purified MHC/competitive/fluorescence; filed as Kd, often an IC50 or EC50 that approximates it; ≥ and ≤ were set here for values at or beyond the usual limits of such assays; details: source organism: Homo sapiens
[22] = target: HLA-A*69:01; assay: as above; details: source organism: Homo sapiens
[23] = target: HLA-A*68:02; assay: as above; details: source organism: Homo sapiens
[24] = target: HLA-A*02:12; assay: as above; details: source organism: Homo sapiens
[25] = target: HLA-B*15:01; assay: as above; details: source organism: Homo sapiens
[26] = target: HLA-B*57:01; assay: as above; details: source organism: Homo sapiens
[27] = target: HLA-B*27:03; assay: as above; details: source organism: Homo sapiens
[28] = target: HLA-A*26:01; assay: as above; details: source organism: Homo sapiens
[29] = target: HLA-A*02:19; assay: as above; details: source organism: Homo sapiens
[30] = target: HLA-A*02:01; assay: as above; details: source organism: Homo sapiens
[31] = target: HLA-B*18:01; assay: as above; details: source organism: Homo sapiens
[32] = target: HLA-B*46:01; assay: as above; details: source organism: Homo sapiens
[33] = target: HLA-B*39:01; assay: as above; details: source organism: Homo sapiens
[34] = target: HLA-B*51:01; assay: as above; details: source organism: Homo sapiens
[35] = target: HLA-B*15:17; assay: as above; details: source organism: Homo sapiens
[36] = source organism: Vibrio vulnificus
[37] = source organism: Coxiella burnetii
[38] = source organism: Corynebacterium efficiens
[39] = source organism: Corynebacterium glutamicum
[40] = source organism: Escherichia coli O157:H7
[41] = source organism: Pseudomonas aeruginosa
[42] = source organism: Shigella flexneri
[43] = source organism: Escherichia coli O6
[44] = source organism: Vibrio cholerae
[45] = source organism: Burkholderia mallei ATCC 23344
[46] = source organism: Haemophilus influenzae

In the case of NGYRWQHQI, the Kd [1, 36] is reported as ≥ 20 µM, the Kd [2, 36] is reported as ≥ 20 µM and the Kd [3, 36] is reported as 7.53 µM. For the same sequence, the Kd [4, 36] was ≥ 20 µM, the Kd [5, 36] was 0.0174 µM and the Kd [6, 36] was ≥ 20 µM. The Kd [7, 36] was ≥ 20 µM, the Kd [8, 36] was ≥ 20 µM and the Kd [9, 36] was ≥ 20 µM. The Kd [10, 36] was ≥ 20 µM, the Kd [11, 36] was 1.35 µM and the Kd [12, 36] was ≥ 20 µM. The Kd [13, 36] was 0.843 µM.
With VPPESVEAA the Kd [1, 37] was ≥ 20 µM, the Kd [14, 37] was ≥ 20 µM and the Kd [2, 37] was ≥ 20 µM. The Kd [4, 37] was ≥ 20 µM, the Kd [5, 37] was ≥ 20 µM and the Kd [6, 37] was ≥ 20 µM. For the same sequence, the Kd [7, 37] was ≥ 20 µM, the Kd [8, 37] was ≥ 20 µM and the Kd [9, 37] was ≥ 20 µM. The Kd [10, 37] was ≥ 20 µM, the Kd [11, 37] was ≥ 20 µM and the Kd [12, 37] was ≥ 20 µM. The Kd [15, 37] was 12.2 µM, the Kd [16, 37] was ≥ 20 µM and the Kd [13, 37] was 1.56 µM. The Kd [17, 37] was ≥ 20 µM.
With KLGDQFGRK the Kd [1, 38] was ≥ 20 µM, the Kd [14, 38] was ≥ 20 µM and the Kd [2, 39] was 4.37 µM. The Kd [3, 38] was ≥ 20 µM, the Kd [4, 39] was 0.242 µM and the Kd [5, 38] was ≥ 20 µM. The Kd [7, 38] was ≥ 20 µM, the Kd [8, 38] was ≥ 20 µM and the Kd [9, 38] was ≥ 20 µM. For the same sequence, the Kd [10, 38] was ≥ 20 µM, the Kd [11, 38] was ≥ 20 µM and the Kd [12, 39] was 0.07 µM. For the same sequence, the Kd [15, 38] was ≥ 20 µM, the Kd [16, 38] was ≥ 20 µM and the Kd [17, 39] was 1.49 µM.
With IAIPAHVRL the Kd [1, 40] was ≥ 20 µM, the Kd [2, 40] was ≥ 20 µM and the Kd [4, 40] was ≥ 20 µM. The Kd [5, 40] was 0.227 µM, the Kd [6, 40] was ≥ 20 µM and the Kd [7, 40] was ≥ 20 µM. For the same sequence, the Kd [8, 40] was 1.81 µM, the Kd [9, 40] was ≥ 5 µM and the Kd [10, 40] was ≥ 20 µM. The Kd [11, 40] was ≥ 20 µM, the Kd [12, 40] was ≥ 20 µM and the Kd [15, 40] was 8.52 µM. It also gave a Kd [16, 40] of 4.46 µM and a Kd [13, 40] of 0.392 µM.
For RSFAERLDR, the Kd [1, 41] was ≥ 20 µM, the Kd [14, 41] was ≥ 20 µM and the Kd [2, 41] was 0.0287 µM. For the same sequence, the Kd [3, 41] was ≥ 20 µM, the Kd [4, 41] was 0.286 µM and the Kd [5, 41] was ≥ 20 µM. For the same sequence, the Kd [7, 41] was 3.46 µM, the Kd [8, 41] was ≥ 20 µM and the Kd [9, 41] was ≥ 20 µM. The Kd [10, 41] was ≥ 20 µM, the Kd [11, 41] was ≥ 20 µM and the Kd [12, 41] was 0.117 µM. The Kd [15, 41] was ≥ 20 µM, the Kd [16, 41] was ≥ 20 µM and the Kd [17, 41] was 0.344 µM.
In the case of KTTLFHTFK, the Kd [1, 42] is reported as ≥ 20 µM, the Kd [14, 43] is reported as 9.38 µM and the Kd [2, 43] is reported as 0.0304 µM. For the same sequence, the Kd [3, 42] was ≥ 20 µM, the Kd [4, 43] was 0.122 µM and the Kd [5, 42] was ≥ 20 µM. For the same sequence, the Kd [6, 42] was ≥ 20 µM, the Kd [7, 42] was ≥ 20 µM and the Kd [8, 42] was ≥ 20 µM. For the same sequence, the Kd [9, 42] was ≥ 20 µM, the Kd [10, 42] was ≥ 20 µM and the Kd [11, 42] was ≥ 20 µM. The Kd [12, 43] was 0.0162 µM, the Kd [15, 42] was ≥ 20 µM and the Kd [16, 42] was ≥ 20 µM. It also gave a Kd [17, 43] of 0.00609 µM.
With RPRIRLSAP the Kd [1, 44] was ≥ 20 µM, the Kd [14, 44] was ≥ 20 µM and the Kd [2, 44] was ≥ 20 µM. The Kd [3, 44] was ≥ 20 µM, the Kd [4, 44] was ≥ 20 µM and the Kd [5, 44] was ≥ 20 µM. For the same sequence, the Kd [6, 44] was ≥ 20 µM, the Kd [7, 44] was ≥ 20 µM and the Kd [8, 44] was ≥ 20 µM. The Kd [9, 44] was ≥ 20 µM, the Kd [10, 44] was ≥ 20 µM and the Kd [11, 44] was ≥ 20 µM. For the same sequence, the Kd [12, 44] was ≥ 20 µM, the Kd [15, 44] was 0.0278 µM and the Kd [16, 44] was 1.89 µM. It also gave a Kd [17, 44] of 3.77 µM.
With YMKAPSGAL the Kd [18] was 0.047 µM, the Kd ([8]; source organism: Burkholderia mallei) was 0.0385 µM and the Kd [19] was 0.005 µM. For the same sequence, the Kd [20] was 1.95 µM, the Kd [15, 45] was 0.009 µM and the Kd [13, 45] was 3.13 µM.
With MTMRRRLFK the Kd [1, 46] was 14.5 µM, the Kd [2, 46] was 0.0202 µM and the Kd [3, 46] was ≥ 20 µM. The Kd [4, 46] was 0.0531 µM, the Kd [5, 46] was ≥ 20 µM and the Kd [7, 46] was ≥ 20 µM. For the same sequence, the Kd [8, 46] was ≥ 20 µM, the Kd [9, 46] was ≥ 20 µM and the Kd [10, 46] was ≥ 20 µM. For the same sequence, the Kd [11, 46] was ≥ 20 µM, the Kd [12, 46] was 0.0142 µM and the Kd [15, 46] was ≥ 20 µM. For the same sequence, the Kd [16, 46] was 5.63 µM and the Kd [17, 46] was 0.00063 µM.
With TPVWHVTSA the Kd [1, 43] was ≥ 20 µM, the Kd [14, 43] was ≥ 20 µM and the Kd [2, 43] was ≥ 20 µM. The Kd [3, 43] was ≥ 20 µM, the Kd [4, 43] was ≥ 20 µM and the Kd [5, 43] was ≥ 20 µM. For the same sequence, the Kd [7, 43] was ≥ 20 µM, the Kd [8, 43] was ≥ 20 µM and the Kd [9, 43] was ≥ 20 µM. For the same sequence, the Kd [10, 43] was ≥ 20 µM, the Kd [11, 43] was ≥ 20 µM and the Kd [12, 43] was ≥ 20 µM. The Kd [15, 43] was 0.0181 µM, the Kd [16, 43] was ≥ 20 µM and the Kd [13, 43] was 0.0209 µM.
In the case of SLFNWLWYE, the Kd [21] is reported as ≥ 20 µM, the Kd [22] is reported as ≥ 20 µM and the Kd [23] is reported as ≥ 20 µM. For the same sequence, the Kd [24] was ≥ 20 µM, the Kd [25] was ≥ 20 µM and the Kd [26] was ≥ 20 µM. For the same sequence, the Kd [27] was ≥ 20 µM, the Kd [28] was ≥ 20 µM and the Kd [29] was ≥ 20 µM. The Kd [30] was 0.196 µM, the Kd [31] was ≥ 20 µM and the Kd [32] was ≥ 20 µM. For the same sequence, the Kd [33] was ≥ 20 µM, the Kd [34] was ≥ 20 µM and the Kd [35] was ≥ 20 µM.
